Assay results published in patent publication US20220306751A1 (MYTHIC THERAPEUTICS, published 2022).
Substitutions are numbered along the chain they refer to. One block for each binder: values may come before it.

Biological target: T1, CD123 protein (R&D Systems Catalog No. 301-R3-025/CF) (Homo sapiens (Human), UniProt P26951 19-305)
T1 construct: Bought protein
T1 sequence: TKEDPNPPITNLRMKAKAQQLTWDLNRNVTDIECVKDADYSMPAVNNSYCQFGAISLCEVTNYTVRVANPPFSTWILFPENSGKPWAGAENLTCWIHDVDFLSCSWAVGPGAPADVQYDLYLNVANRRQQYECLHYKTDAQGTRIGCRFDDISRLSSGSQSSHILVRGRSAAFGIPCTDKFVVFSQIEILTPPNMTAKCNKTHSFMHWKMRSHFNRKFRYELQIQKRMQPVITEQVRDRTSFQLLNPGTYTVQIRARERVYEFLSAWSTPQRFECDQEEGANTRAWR
Experiment: BLI, IgG on anti-human Fc sensor, pH 7.4 and pH 5.4

- binding result: no binding (tested: 50 nM)
B1: MYT5476 (antibody, V domains shown)
VH: EVQLLESGGGLVQPGGSLRLSCAVSDYSITSGYYWNWIRQAPGKKLEWMGYISYDGSNNYNPSLKNGRITISRDTSKNTFYLQMNSLRAEDTAVYYCARGEHFYFDSWGQGTLVTVSS
VL: EIVLTQSPGTLSLSPGERATLSCKSSQSLFFGSTQKNYLAWYQQKPGQAPRLLIYWASTRESGIPDRFSGSGSGTDFTLTISRLEPEDFAVYYCQQYYNYPWTFGQGTKLEIK
notes: IgG

- binding result: no binding (tested: 50 nM)
B2: MYT5495 (antibody, V domains shown)
VH: B1 VH with H102G
VL: B1 VL with A40H
notes: IgG
